# Reference: the supplement of paper PMC9170038
# Tested on: MS2 coat protein
# Experiment: apparent KD of MS2 coat protein; designed switch direction (-1 OFF switch, 1 ON switch): -1; higher = weaker reporter binding
# In short: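 An oligonucleotide input, 200 uM small-molecule ligand, or no input was present during titration of SNAP-549-labelled MS2 coat protein, which was doubled from 0.7 or 1.5 nM to 3 µM. Designed RNA switches had been transcribed on Illumina chips by stalled E. coli RNA polymerase. Apparent KD per design is the median over clusters of curves fitted to normalised cluster fluorescence.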
# [1] = input ligand: microRNA oligo, concentration not stated
# [2] = Eterna round: R95, input ligand: microRNA oligo, concentration not stated
Sequence,apparent KD of MS2 coat protein (input ligand: FMN 200 uM),apparent KD of MS2 coat protein (input ligand: none),apparent KD of MS2 coat protein [1],apparent KD of MS2 coat protein [2],"apparent KD of MS2 coat protein (Eterna round: R95, input ligand: FMN 200 uM)","apparent KD of MS2 coat protein (Eterna round: R95, input ligand: none)"
"CCUAAAUCCUAGGAUAUGCUAGACGAAAGUCUAGCAGAAGGAGGAACAUGAGGAUCACCCAUGUGUCCUAUAGG [Mat - Exclusion 6 - Eli Mod - D31] (Eterna round: R97, puzzle: Exclusion 6)",0.0206 µM,0.0165 µM,–,–,–,–
"GGAGCAAAUGUCAGGAUAUCGUGGUCGAUAGAUCACGAGAAGGGACAUGAGGAUCACCCAUGUCAGUCCGCUCC [Mat - Exclusion 4 - Eli Mod - D58] (Eterna round: R97, puzzle: Brourd's mod of Exclusion 4)",0.022 µM,0.0143 µM,–,–,–,–
"GGUUAGACGGUAGGAUAUCCAUAUCGAGUGACCCUUUCAUAACAUGAGGAUCACCCAUGUCGGUGGGAGAAGGGCCGUACGGCG [salish99_ExNG02_R04_009] (Eterna round: R96, puzzle: Exclusion NG 2)",0.0509 µM,0.0422 µM,0.0335 µM,–,–,–
UGUGUAACGGAGGAUAUAGGACUUCAACGAAGACUAGAAGGCCGAACAUGAGGAUCACCCAUGUGGUCCUCCGU [Dicesoqu] (puzzle: Exclusion 6),–,–,–,0.0132 µM,–,–
"UGAUCAGACCGAGGAUAUACAUGUAGGACCCACGUGAGUGGGUCCAGUACAUGAGGAUCACCCAUGUAGAAGGCGGUCUGAUCU [JL ENG2 1.89] (Eterna round: R96, puzzle: Exclusion NG 2)",0.241 µM,0.0946 µM,0.0706 µM,–,–,–
"CAUUAUGUUGAGGAUAUGCACCAGCUCACUGACGCAGAAGGCGACACAUGAGGAUCACCCAUGUCAGUUCGCGA [salish99_ex6_r004_428] (Eterna round: R97, puzzle: Exclusion 6)",0.0161 µM,0.0146 µM,–,–,–,–
"AAGAAGAAGUAAGGAUAUGAAGAUUUGGUGAUGACAUGAGGAUCACCCAUGUGAAAACAAUAAGAUCAGAAGGUAUAAGAAGAA [AK ExNG2-2.2] (Eterna round: R96, puzzle: Exclusion NG 2)",0.104 µM,0.112 µM,0.0616 µM,–,–,–
"UAUGGUAAAGUCAGGAUAUACGUACAGAAUUCUAGGUAGAAGGGACAUGAGGAUCACCCAUGUAUGGUAGUGUU [Ex4 #43] (Eterna round: R97, puzzle: Brourd's mod of Exclusion 4)",0.262 µM,0.0669 µM,–,–,–,–
"AGCUGUGGCCGAGGAUAUGCUACUUCAAUAACCGAAAUAUAAUCGGACAUGAGGAUCACCCAUGUAGAGAAGGCGGUCUCAGCA [Eli eng2 - 085] (Eterna round: R96, puzzle: Exclusion NG 2)",–,–,0.0103 µM,–,–,–
"GCUAGAGCAGGAUAUUUAAAUCCUCACAUGAGGAUCACCCAUGUAGUCGAAAGACUAAGAAGAGAAGGGCUCUAGC [Omei Ex5 E20] (Eterna round: R97, puzzle: Exclusion 5)",0.951 µM,0.23 µM,–,–,–,–
"AAAGGGCAAGCAUGAUCCCACAUGAGGAUCACCCAUGUGUUCGUCUUAUAGGCUGCUGAGGCUUUUGCCUCGGUGGC [LRO Sensor-off var1-04 loose mod of D91 from Mat747] (Eterna round: R97, puzzle: Sensor, turn-off variant 1)",0.484 µM,0.567 µM,–,–,–,–
"UAUUAUGCAAGCAGGUCCCACAUGAGGAUCACCCAUGUGCUCGUCUUAUAAGGUACUGUGACGAAAGUCACGGUACC [Elimod 15 - Jieux - Sensor, turn-off variant 1] (Eterna round: R97, puzzle: Sensor, turn-off variant 1)",0.0376 µM,0.0379 µM,–,–,–,–
UAAAUAAGUGUGAGGAUAUGCUGGUCCUUGGAUCAGCAGAAGGCACAUGAGGAUCACCCAUGUAAUAUAUUUAU [Mat - Exclusion 4 - JL Mod - D61] (puzzle: Brourd's mod of Exclusion 4),–,–,–,0.0681 µM,–,–
"GAAAAGUAAGGAUAUGUCUCCAGUGAGGAAACUCACUGGAGACAGAAGGUACAUGAGGAUCACCCAUGUUCCUC [ExDelusion 5 - Jieux - Exclusion 4] (Eterna round: R97, puzzle: Exclusion 4)",0.289 µM,0.0427 µM,–,–,–,–
"GUAUAACAUGUAGGAUAUGCGUGGCGAAGCUAUGCAGAAGGACAUGAGGAUCACCCAUGUUUUUGCGUCUGCGUACAGAUGCUA [JL ENG1 1.40] (Eterna round: R96, puzzle: Exclusion NG 1)",0.107 µM,0.0215 µM,0.0152 µM,–,–,–
"UUAAUGGCUGUGAGGAUAUCGGAUAGAUAGAUAUUCGAGAAGGUACAUGAGGAUCACCCAUGUGUGAUUAGAGA [Brourd's EX4 #64] (Eterna round: R97, puzzle: Brourd's mod of Exclusion 4)",0.269 µM,0.244 µM,–,–,–,–
"UCGGCCGCCGUGAGGAUAUGCCCGCGCGCCCGCGGGCAGAAGGCACAUGAGGAUCACCCAUGUCCCGCGGCACC [salish99_bmx4_r4_125] (Eterna round: R97, puzzle: Brourd's mod of Exclusion 4)",0.0151 µM,0.0141 µM,–,–,–,–
"CCAAUACAAGGAUAUGCGAUGCAUGUCAGGUUAGUAGACAGACAUGAGGAUCACCCAUGUAGAAGGUGUGUUGG [Eternabot (L2) Solution 55] (Eterna round: R97, puzzle: Exclusion 2)",0.0756 µM,0.0414 µM,–,–,–,–
"GCGCACCUACCAAAAGGUAGGACAACAUGAGGAUCACCCAUGUAGGAUAUCGAUUGCUUUGCAGUCGAGAAGGACAUGAUGCGC [JL ENG3 3.80 Mod 7] (Eterna round: R96, puzzle: Exclusion NG 3)",0.111 µM,0.0347 µM,0.0259 µM,–,–,–
ACGCCGCAAGGAUAUCGUAAAGCAGACAUGAGGAUCACCCAUGUGAUAUCAGAAAGGCCACGAGAAGGUGCACAAG [Tigeor] (puzzle: Exclusion 5),–,–,–,0.0203 µM,0.0324 µM,0.0213 µM
"UUGUUGUAUGUAGGAUAUGCGUGUUAUUAUUAUGCAGAAGGACAUGAGGAUCACCCAUGUGUAUUAUUAUUAUAUAUUAUAUAU [Title] (Eterna round: R96, puzzle: Exclusion NG 1)",–,–,0.0141 µM,–,–,–
"GGCGCACAUGAGGAUCACCCAUGUGAGGAUAUUAGGCGAUCGUCGAUAGACGAUAGCCUGAGAAGGCACAUGCC [Mat - Exclusion 1 - Eli Mod - D18] (Eterna round: R97, puzzle: Exclusion 1)",0.188 µM,0.0293 µM,–,–,–,–
"CGAUAUAAGUCAGGAUAUGAGCGCAACUGACGAUCAGAAGGGACACAUGAGGAUCACCCAUGUGAUCUAUCAAUAUUAUACAUC [Prohibition 92 - Jieux - Exclusion NG 1] (Eterna round: R96, puzzle: Exclusion NG 1)",0.0255 µM,0.0215 µM,0.0162 µM,–,–,–
"GCGCGAAGCUAGGAUAUGGGAGCGUCUUCGCUCCCAGAAGGAGCCACAUGAGGAUCACCCAUGUGGUGAUCCUG [eternacac ex6r4 sub14] (Eterna round: R97, puzzle: Exclusion 6)",0.017 µM,0.0165 µM,–,–,–,–
